In PMC4938799, “LD Motif Recognition by Talin: Structure of the Talin-DLC1 Complex” (Structure(London, England:1993), 2016) one finds colony growth data, which are given here for one molecule.

The experiment deals with A549 human non-small cell lung cancer line. Put plainly: G418 (monolayer) colony growth assay. To be noted: transfected A549, G418 for 3 weeks; mean over three experiments. Type of experiment: cell-based. From the text:
Figure 6 Talin R8 Mutations Disrupt the Interaction with DLC1 and Affect Its Biological Activity (A) Wild-type GST-talin fragments pull down more DLC1 than the 2E mutants. Extracts of HEK293T cells transfected with GFP-DLC1 and GST-talin constructs were subjected to pull-down assays with glutathione beads followed by immunoblotting with anti-GST and anti-DLC1 on the same membrane (top). The transfected GFP-DLC1 in each sample is shown by the anti-DLC1 blot (bottom) as a loading control. (B) Wild-type GST-talin fragments compete efficiently with endogenous talin to form a complex with DLC1. The supernatants collected after pull-down assay from (A) were reused for co-immunoprecipitation with an anti-talin antibody and blotted with anti-DLC1 (top). A small aliquot from each lane was blotted for endogenous talin as a loading control (bottom). (C) Co-expression of GST or GST-talin fragments (wild-type or 2E mutant) with GFP DLC1 in A549 cells. […] Transfected A549 cells were cultured in G418 for 3 weeks, and colonies counted and quantitated (top). […] Transfected A549 cells were grown for 3 weeks in soft agar, and colonies counted and quantitated (top). […] Lysates from migrated cells were quantitated (top), and representative microscopic images of the migrated cells are shown (bottom). […]

B1: GST-R8: GST-tagged talin R8, amino acids 1,453–1,580 (protein)
chain: NSQAGQQGLVEPTQFARANQAIQMACQSLGEPGCTQAQVLSAATIVAKHTSALCNSCRLASARTANPTAKRQFVQSAKEVANSTANLVKTIKALDGDFTEENRAQCRAATAPLLEAVDNLSAFASNPE
modifications: left off: GST, end not stated, kept
For B1, the colony growth entry is given as “no detectable biological activity”.
